Measured values taken from a protein production outcome set (Wang et al. 2014).

Assay: label from the status in PepcDB records
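Also: failed if final PepcDB status was selected cloned or expressed and not failed if soluble or beyond.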

Sequence | protein production
MAGPTLLKESGPREVFCGLTSIVWLHRRMPDAFFLVVGSRTCAHLIQSAAGVMIFAEPRFGTAILSERDLAGLADAHEELDRVARELLQRRPEIRTLFLVGSCPSEVIKLDLARAAERLNDELQGRVRVVNYSGSGIETTFTQGEDGALAALVPLLPSSAERQLLLVGTLADAVEDRLIHLFGRLGIDRVRSLPPRQSTALPPVGPGTTVLLTQPFLTDTARLLRNRGATVLTAPFPLGAEGSRRWMEAAAQAFEVAPSHVATVLDPLMERARIALEPHREVLAGKRIFLLPESQLELPLARFLQRECGMELVEVGTPYLNREQMAEELALLPEGTPVMEGQHVELQLDRVRDSAPDLVVCGMGLANPLEAEGIATKWSIELVFSPIHGIDQAGDLAELFSRPLRRRQLIHPGLHPTQPDQPVHA | failed
MSRSVPDRWNMHKPMLCDSLPTASRTAAAILNLAQREDVTAEALAQLIQTDPALTGRILRFANAPAQGTRRPVASVIDAIDLVGLPAVRQFALSLSLIDAHREGRCEAFDYAAYWQKSLARAVALQSITAQASTVAPKEAFTLGLLADVGRLALATAWPEEYSECLRKADGEALIALERERFATDHDELTRMLLTDWGFPQVFIDALQLSQQDEIRDEGRTGRFARQLALAQHIADHRLAEEPRRAALSPLLRAEARRCGLGDEDLARLLADPPADWLDWTRTIGLPGDAPTGGAEPSRPPPQTDEKLHVLLADDDPIMLARLSRQLEADGHHVASRRDGETALAYALEHQPEMVITDWHMKPMNGLELCRALRESALGGNVYIVMLTASESEDALVEAFGAGIDDYVIKPPSVRVLKARIRAGQRIITLHKKLARERKEIERYSSELAAANRRLELMAHTDQLTGLPNRRYAMDRLEREWAQARTFDRPLSIMMLDLDWFKSINDSLGHDAGDQALVHAARVMRETVRTSDVVCRMGGEEFLIIIPDTAGPAAIQTAERVRSAVEQQQPAKLKLSRPLTASIGVADSTSAPSLKDLLLKADNALYQVKQNGRNGVRYAGLLEHHHHHH | not failed
MSFSYGLAVPFVPTLVLLPQTSAAHVQRIRGGNILSLIDQPPPVVPTLTPPPQQARSGIRINKVTSSYAGLLTSVKEAGLLERCRRDYLLLLTLLVIAGAGVLVAFFFVGDSWLQLVVAAALGIVFTQFALFGHEAAHQQVFTSRAANEWAARLIATLMVGMSYAYWTDKHSRHHARPNVVNRDPDIAPGAIVFHNEVPTNRGRFSRAYGKRQGYLLFPLLLFLGWTLHIDSLKYLLKRGPVKFRWLELGLLGVRFGTYIGLLFLVLSPGIAVAFIGVQVAVFGLYMGGTFAPNHKGMPILPADSRADFLSRQVLTSRNITGGGFVTFLMGGLNYQIEHHLFPDMPRRHLREASQLVKAHCVRTGIPYTETSLMRSYSIVIRYLNTVGLAAADPFTCPLAGQHRP | failed
MRDGVSPEQPKVSVIMPVRDGERWVAEAIRSVQSQTFRDFELLVIDDGSADATPAILAEAAAADPRIFVLTQHRDGLVAGLNRGLAAARAPLIARLDADDIALPDRLARQVDYMTTHPAVVLLGGWATIVDENGQPKGRDMRPNPNDLRATLMKKSPFIHPTVMFRAEAARRVGGYHAAFEAGEDYDFWLRLADIGEVAILPELLIRYREHSASVTRTRQLRQIYSARLAKLAAAARQAGQPDPSAPLTTPPDWHDASPGPFERDSSRLFRMLELADPAVAARIAPSAIDLNAITSQLGTLTAGERKFAQAALLNLLRANKLPSLAARWSAVFLLVRLGPLKAIKAARQLRNR | failed
NGQSDVKHIGILQYVEHPSLTATRKGFIKELAKEGYKDGKNIKIEYKNAQGDQSNIQSISEKLIKDNKLVLGIATPAAQSLTTVSTETPILFTAVTDPVSAELVKSMKKPEGLATGTSDMSPIKKQVSLLRKVMPKVKRVGIMYTTSERNSEVQVKQAKKIFQEAGIKTSVKGISSTNDVQDTAKSLMSKTEVIFVPTDNIIASSVTLLGNLSKELKVPVVGGSADMVPSGLLFSYGADYEALGRQTARQAVKILKGKDVAKVPSEYPQNLKVVVNEDMAKELGIDVSSIK | not failed
MGQIGVEITGVITDISEIKTFKRRDGSLGKYKRITIADKSGTIRMTLWDDLAELDVKVGDVIKIERARARKWRNNLELSSTSETKIKKLENYEGELPLEHHHHHH | not failed
MQSPEKIDPTWEDSVIDSFISFVRSYDGDFTCIYKLADTVSDEYSLQKIIDFLSSTPQGKQAFQKRPQLGVVDLPKLHQLPTDTLGYVYADQMLQNNLQPLQSHEIDNDYQFFKTHITETHDLWHIVTGADTSILGEIQLEAFYVSQLYASRFWLALLAKNLLKAVIYDIELSTPYMDAISTGWVMAKQAKPLFGLEWNLLWEKPLADVRTSLNIILPVNLEHHHHHH | not failed
MTQDEWIDIPQGWSQGRTIYGGLVAGLLMHKALSVMNDESKNLLSTSITFVGPVNEGRVRLTVEILRQGKSVTTIEARLWQDQAVQTILIASFGQPRSLEHHHHHH | not failed
MNKLKYYCLRYQPYLLGVAFFLAIFLVWAIGRAFGFASLHSLLAGIGVFLLLSAGYVLLLYRGVGQHHNLEGLLRDDADQAVLSAAPADREEVSLLRERLLQGIERLHSNKPRGTSNKDALYALPWYLVIGQPAAGKSTMILQSGLNFPYAEREGVRVAGLGGTRNCDWFFSSEAVLLDTAGRYMNSPEEAGKWRGFLQLLRQHRQRRPLNGLIVSVSIADILHGSVEDQERVAKRLRERIQESCALLEVRLPIYLVFTKCDLIPGFTAFYRQLDDAARGEVMGKTFSHKGYEQADWGQRFSNAMDELTRYWGQMASQQLVQQDIQVTRRNDAAYRFPLELAALKPRLHQFVDSLLRANPYQNAEMLRGFYFTAALQADEAQWGCHGQHVAERFALEHAEGTGTAGSQPAPLFINSLFRKVIIPDQHLVALYTSNHRERRRKAGWVGAAGLAALVLCSLWGWSYLNNRATLASIADELAQAKADDQAASGQYTAWRSLDRLRFWAAHYHEQHHAKGVPLGMRLGLYQGHEVEPLLRDRYFATLQNVMLKPTADNLTRTLYLLTTLKVYQRNTRELQPVSGIDSVEAEALPHDNRAQSIANFGKAALDTYVMLSPGQREHADPAFLKAHLPDYWYPAIARQTGKSMAAAGSEAGGNQDYLYASRQITFYSDQIREPDVPRILDNAFLMSSSRNYIDSLRAQSLRAIETITLESDTLFAFGRADFQSLKNEGQHQLSAIASKLLNTPNIGKIIISGHADQLGDSQGNLQVSKQRAQTIRTYLVGKGVPAELVVAQGEGSRKPLVNCDMQQPRTQLIKCLEPNRRVEIEVRGLN | failed
MYSYADRLRAVELYIRLGKRLNTTIRQLGYPTKNALRGWYREYVQHLDLRTQPVARAPKYSEAQRQAALEHFRTHDRCISGTMRALGYPGRGTLTAWVREAFPEARTSMVGRSWHPGYSEEVRQAGVIGLCSGDESAQQVADRLGVSRPTLYSWKDQLLGHEASSSMKRRKANPKVPEREELERKLEALQRDVRQLQLEHDLLKKANELLKKGLGVDLLILSNREKTQLIDALKEVYRLPELLAQLRIARSSYFYHRARMCLADKYAAVRLSLAEIFEANRRCYGYRRLQASLARKSVIVSEKVVQRLMKQEHLAVARPRRRRFGSYLGEISPAPENLINRDFHADAPNVKWLTDITEFQIPAGKVYLSPIIDCFDGMVISWSIGTQPDAGLVNTMLDAAIGTVANGEERPIIHSDRGAHYRWPGWLTRISEARLVRSMSRKGCSQDNAACEGFFGRLKTELFYPRDWKAITIEQFVAEVDAYIRWYNEKRIKISLGSLSPVEYRQSLGLKLLEHHHHHH | not failed
MYKLDLPTLMDAFHKVFHVSMLRKCITHQENVISEPPPDLLENMMIVGMLIPNLLGVSSEMVGR | failed
TEDTFWKDETDFNLALTSCYTPLKNALNGGYYGTRGVMLRIARADEVDFRNDISDVYTVNRFTNSNTNSLTQGMFYQFYNALYRTNSIMQKLEEKKEQFSTDFQNSVKGECLFIRGFYLFQLAKEFKDAPLRLTASQSPSTFPLAKSSQADIWAQAKEDLKTAASLLPITNKIGKPTQGAAYAALGKIYVYEENWQEAINVLEPLTQNPYTYKLVEDFNWNFDDTHENNAESIFELLIEDVGGTDLWGDGENINSTQSNTRPKEYAAAEVGGWYEANPTQQIMDIFWKEKDKDGNFDYRARCSVAWDYEGCTYYQRPFREVFAQDKWKTYWILKYQNWKTQKDEPAPPKSFINERAIRYADVLLMLAEAYMNKGALDTSIGYINQIRRRANLNDYSGPITKEGVFEDLVHQRAIEFFVEGERFYDLRRWGLLEQTLKTCDDTRYKNYQTGKSDNINKFNYFPIPAKELDTNPLCTPSEGW | not failed
